From patent publication US7128911

Biological target: T1, C-RANKL protein (RANKL fragment with N-terminal cysteine-containing amino acid linker and hexa-histidine tag, … (mouse, UniProt O35235 137-316))
T1 construct: Coated on ELISA plates at 10 ug/ml
T1 sequence: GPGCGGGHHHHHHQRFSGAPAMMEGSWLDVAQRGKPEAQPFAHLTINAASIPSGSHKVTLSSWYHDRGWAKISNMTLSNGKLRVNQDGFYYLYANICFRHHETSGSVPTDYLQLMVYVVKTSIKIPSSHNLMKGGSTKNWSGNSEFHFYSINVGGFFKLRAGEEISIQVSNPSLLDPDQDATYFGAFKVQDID
Experiment: ELISA, plates coated with 10 ug/ml C-RANKL, serial dilutions of RANK-Fc, anti-Fc-HRP detection

B1: purified RANK-Fc fusion protein (Fc fusion)
chain: VTPPCTQERHYEHLGRCCSRCEPGKYLSSKCTPTSDSVCLPCGPDEYLDTWNEEDKCLLHKVCDAGKALVAVDPGNHTAPRRCACTAGYHWNSDCECCRRNTECAPGFGAQHPLQLNKDTVCTPCLLGFFSDVFSSTDKCKPWTNCTLLGKLEAHQGTTESDVVCSSSMTLRRPPKEAQAYLPS
  EC50: 1 to 3 nM
